Our source for the Kd values is paper PMC10202959, “A superior extracellular matrix binding motif to enhance the regenerative activity and safety of therapeutic proteins” (NPJ Regenerative Medicine, 2023).

First the molecules themselves.
B5: human fibrinogen (complex)
chain 1: ADSGEGDFLAEGGGVRGPRVVERHQSACKDSDWPFCSDEDWNYKCPSGCRMKGLIDEVNQDFTNRINKLKNSLFEYQKNNKDSHSLTTNIMEILRGDFSSANNRDNTYNRVSEDLRSRIEVLKRKVIEKVQHIQLLQKNVRAQLVDMKRLEVDIDIKIRSCRGSCSRALAREVDLKDYEDQQKQLEQVIAKDLLPSRDRQHLPLIKMKPVPDLVPGNFKSQLQKVPPEWKALTDMPQMRMELERPGGNEITRGGSTSYGTGSETESPRNPSSAGSWNSGSSGPGSTGNRNPGSSGTGGTATWKPGSSGPGSTGSWNSGSSGTGSTGNQNPGSPRPGSTGTWNPGSSERGSAGHWTSESSVSGSTGQWHSESGSFRPDSPGSGNARPNNPDWGTFEEVSGNVSPGTRREYHTEKLVTSKGDKELRTGKEKVTSGSTTTTRRSCSKTVTKTVIGPDGHKEVTKEVVTSEDGSDCPEAMDLGTLSGIGTLDGFRHRHPDEAAFFDTASTGKTFPGFFSPMLGEFVSETESRGSESGIFTNTKESSSHHPGIAEFPSRGKSSSYSKQFTSSTSYNRGDSTFESKSYKMADEAGSEADHEGTHSTKRGHAKSRPV
chain 2: QGVNDNEEGFFSARGHRPLDKKREEAPSLRPAPPPISGGGYRARPAKAAATQKKVERKAPDAGGCLHADPDLGVLCPTGCQLQEALLQQERPIRNSVDELNNNVEAVSQTSSSSFQYMYLLKDLWQKRQKQVKDNENVVNEYSSELEKHQLYIDETVNSNIPTNLRVLRSILENLRSKIQKLESDVSAQMEYCRTPCTVSCNIPVVSGKECEEIIRKGGETSEMYLIQPDSSVKPYRVYCDMNTENGGWTVIQNRQDGSVDFGRKWDPYKQGFGNVATNTDGKNYCGLPGEYWLGNDKISQLTRMGPTELLIEMEDWKGDKVKAHYGGFTVQNEANKYQISVNKYRGTAGNALMDGASQLMGENRTMTIHNGMFFSTYDRDNDGWLTSDPRKQCSKEDGGGWWYNRCHAANPNGRYYWGGQYTWDMAKHGTDDGVVWMNWKGSWYSMRKMSMKIRPFFPQQ
chain 3: YVATRDNCCILDERFGSYCPTTCGIADFLSTYQTKVDKDLQSLEDILHQVENKTSEVKQLIKAIQLTYNPDESSKPNMIDAATLKSRKMLEEIMKYEASILTHDSSIRYLQEIYNSNNQKIVNLKEKVAQLEAQCQEPCKDTVQIHDITGKDCQDIANKGAKQSGLYFIKPLKANQQFLVYCEIDGSGNGWTVFQKRLDGSVDFKKNWIQYKEGFGHLSPTGTTEFWLGNEKIHLISTQSAIPYALRVELEDWNGRTSTADYAMFKVGPEADKYRLTYAYFAGGDAGDAFDGFDFGDDPSDKFFTSHNGMQFSTWDNDNDKFEGNCAEQDGSGWWMNKCHAGHLNGVYYQGGTYSKASTPNGYDNGIIWATWKTRWYSMKKTTMKIIPFNRLTIGEGQQHHLGGAKQAGDV
modifications: Plasma-derived disulfide-linked hexamer (alpha-beta-gamma)2, fibrinopeptides A and B retained, N-glycosylated. Isoforms are not printed: the major plasma forms are taken by convention, i.e. the …

Common to all, as to conditions: both partners purified
Assay [1] concerns the target T1, human vitronectin (human, UniProt P04004 20-478).
T1 construct: vitronectin, human; source: bought: Peprotech
Kind of assay: ELISA; plates coated with 100 nM ECM protein in PBS (1 h, 37 °C), blocked with 1% BSA in PBS-T; PDGF-BB or IL-1Ra variants at increasing concentrations in PBS-T with 0.1% BSA, 1 h at room temperature; detected with biotinylated antibodies; one site specific binding model; n = 3.

The target of assay [2] is T2, human tenascin C (human, UniProt P24821 23-2201).
T2 construct: tenascin C, human; also called Tenacin C; source: bought: R&D Systems
T2 sequence (P24821 23-2201): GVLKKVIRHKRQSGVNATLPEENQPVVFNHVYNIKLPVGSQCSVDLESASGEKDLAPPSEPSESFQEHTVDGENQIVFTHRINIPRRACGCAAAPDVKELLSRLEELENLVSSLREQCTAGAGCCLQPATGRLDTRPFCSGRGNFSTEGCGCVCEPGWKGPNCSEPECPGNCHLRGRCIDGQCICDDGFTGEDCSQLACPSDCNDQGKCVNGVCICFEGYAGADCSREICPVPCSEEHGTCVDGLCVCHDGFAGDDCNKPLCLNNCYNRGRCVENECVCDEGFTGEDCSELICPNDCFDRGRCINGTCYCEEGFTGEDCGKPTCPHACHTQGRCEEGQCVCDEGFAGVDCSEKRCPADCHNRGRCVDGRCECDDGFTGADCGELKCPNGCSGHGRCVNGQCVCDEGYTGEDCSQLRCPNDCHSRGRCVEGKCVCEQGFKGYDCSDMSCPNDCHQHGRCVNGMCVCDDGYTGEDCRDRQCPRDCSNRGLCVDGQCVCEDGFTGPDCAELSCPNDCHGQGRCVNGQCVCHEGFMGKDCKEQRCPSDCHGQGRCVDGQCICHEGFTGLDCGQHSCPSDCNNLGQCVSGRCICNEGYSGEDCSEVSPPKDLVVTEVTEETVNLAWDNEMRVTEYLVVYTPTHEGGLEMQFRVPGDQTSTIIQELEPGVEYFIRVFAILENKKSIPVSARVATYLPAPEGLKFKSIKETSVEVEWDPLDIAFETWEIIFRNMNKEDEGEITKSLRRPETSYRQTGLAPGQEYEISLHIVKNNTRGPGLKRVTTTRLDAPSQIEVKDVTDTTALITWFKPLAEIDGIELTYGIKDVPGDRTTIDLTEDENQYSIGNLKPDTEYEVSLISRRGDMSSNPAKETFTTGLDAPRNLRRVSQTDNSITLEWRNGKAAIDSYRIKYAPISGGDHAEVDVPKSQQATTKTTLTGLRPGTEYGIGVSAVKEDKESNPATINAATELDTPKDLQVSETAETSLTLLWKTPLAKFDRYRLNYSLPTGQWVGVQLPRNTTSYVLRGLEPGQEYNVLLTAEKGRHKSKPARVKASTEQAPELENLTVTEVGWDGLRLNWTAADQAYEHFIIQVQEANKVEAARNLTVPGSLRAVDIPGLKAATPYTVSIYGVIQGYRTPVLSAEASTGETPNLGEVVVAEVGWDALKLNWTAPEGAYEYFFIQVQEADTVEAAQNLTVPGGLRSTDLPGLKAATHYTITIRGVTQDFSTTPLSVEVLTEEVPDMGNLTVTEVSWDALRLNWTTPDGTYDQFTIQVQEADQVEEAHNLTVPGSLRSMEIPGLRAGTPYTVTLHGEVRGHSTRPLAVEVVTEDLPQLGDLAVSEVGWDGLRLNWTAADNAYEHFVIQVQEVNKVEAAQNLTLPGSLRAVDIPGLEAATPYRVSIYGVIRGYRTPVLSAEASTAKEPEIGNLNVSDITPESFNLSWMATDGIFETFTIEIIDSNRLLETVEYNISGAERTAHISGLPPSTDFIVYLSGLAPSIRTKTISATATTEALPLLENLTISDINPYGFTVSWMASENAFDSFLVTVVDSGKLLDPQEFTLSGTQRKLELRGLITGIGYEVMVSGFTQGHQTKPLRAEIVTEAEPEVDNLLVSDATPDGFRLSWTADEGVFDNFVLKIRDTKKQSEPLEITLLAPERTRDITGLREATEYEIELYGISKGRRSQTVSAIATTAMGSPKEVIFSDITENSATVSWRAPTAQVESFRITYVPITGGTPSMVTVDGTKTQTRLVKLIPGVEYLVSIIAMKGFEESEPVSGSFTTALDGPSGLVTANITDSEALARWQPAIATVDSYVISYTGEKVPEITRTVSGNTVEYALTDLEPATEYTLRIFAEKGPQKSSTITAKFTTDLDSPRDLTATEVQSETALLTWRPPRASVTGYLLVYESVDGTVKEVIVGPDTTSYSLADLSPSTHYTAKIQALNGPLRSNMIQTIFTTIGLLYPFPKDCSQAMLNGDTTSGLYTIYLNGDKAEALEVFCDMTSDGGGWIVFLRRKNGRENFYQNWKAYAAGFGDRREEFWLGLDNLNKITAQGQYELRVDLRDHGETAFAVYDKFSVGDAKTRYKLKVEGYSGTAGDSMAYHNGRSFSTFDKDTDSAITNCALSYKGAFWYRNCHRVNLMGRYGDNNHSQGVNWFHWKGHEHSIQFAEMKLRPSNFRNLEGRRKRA
The assay is described as above.

The target in assay [3] is human plasma fibronectin (human). The description is as above.
Assay [4] concerns the target B5. Described as above.
Target sequence in this assay (P02671 36-866): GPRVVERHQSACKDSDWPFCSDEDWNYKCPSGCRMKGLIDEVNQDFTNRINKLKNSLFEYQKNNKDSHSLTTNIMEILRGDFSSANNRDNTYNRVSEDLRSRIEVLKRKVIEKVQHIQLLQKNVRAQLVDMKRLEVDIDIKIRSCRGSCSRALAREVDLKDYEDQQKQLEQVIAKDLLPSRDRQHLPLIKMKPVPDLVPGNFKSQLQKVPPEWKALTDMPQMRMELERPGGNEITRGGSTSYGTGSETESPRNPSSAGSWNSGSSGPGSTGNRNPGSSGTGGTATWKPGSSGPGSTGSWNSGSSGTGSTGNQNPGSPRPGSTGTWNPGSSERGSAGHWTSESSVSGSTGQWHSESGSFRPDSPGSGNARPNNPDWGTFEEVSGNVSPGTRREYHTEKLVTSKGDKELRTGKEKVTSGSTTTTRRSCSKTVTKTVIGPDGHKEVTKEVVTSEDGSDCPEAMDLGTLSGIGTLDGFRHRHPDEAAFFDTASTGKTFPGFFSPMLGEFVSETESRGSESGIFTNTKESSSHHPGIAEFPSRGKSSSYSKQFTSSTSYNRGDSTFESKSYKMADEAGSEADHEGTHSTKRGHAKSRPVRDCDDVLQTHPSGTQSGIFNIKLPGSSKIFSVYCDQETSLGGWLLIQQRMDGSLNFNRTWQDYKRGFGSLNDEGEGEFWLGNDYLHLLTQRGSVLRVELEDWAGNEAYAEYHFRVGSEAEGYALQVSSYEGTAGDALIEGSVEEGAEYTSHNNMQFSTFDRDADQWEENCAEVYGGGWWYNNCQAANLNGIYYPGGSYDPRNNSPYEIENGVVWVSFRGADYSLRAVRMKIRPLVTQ
The target in assay [5] is T1, human vitronectin. Description: ELISA; plates coated with 100 nM PlGF-2, AREG or NRTN (1 h, 37 °C), blocked with 1% BSA in PBS-T; ECM proteins at increasing concentration in PBS-T with 0.1% BSA; bound ECM protein detected with HRP-conjugated antibodies; one site specific binding model; n = 3.
Assay [6] deals with T2, human tenascin C. The assay is described as above.
Assay [7] concerns the target human plasma fibronectin (human). The description is as above.
For assay [8], the target named is B5. The description is as above.
The target in another assay is T3, AREG26-38/IL-1Ra (human | ).
T3 construct: interleukin-1 receptor antagonist protein; Both the His tag and AREG26-38 are said to stand at the N-terminus; also called AREG126-138/IL-1Ra; engineered IL-1Ra; source: E. coli BL21 (DE3), pET-22b, soluble fraction, purified (Ni column)
T3 sequence (P02671 36-866): as above
Kind of assay: ELISA; plates coated with 100 nM ECM protein in PBS (1 h, 37 °C), blocked with 1% BSA in PBS-T; PDGF-BB or IL-1Ra variants at increasing concentrations in PBS-T with 0.1% BSA, 1 h at room temperature; detected with biotinylated antibodies; one site specific binding model; n = 3. (In general: An ELISA detects its analyte on a solid surface through an enzyme-linked reagent.)

In the next assay the target is T4, AREG26-38/PDGF-BB (human | ).
T4 construct: platelet-derived growth factor subunit B; AREG26-38 at the N-terminus of PDGF-B; also called AREG126-138/PDGF-BB; engineered PDGF-BB
T4 sequence (P02671 36-866): as above
The assay is described as above.

T1 sequence (P04004 20-478): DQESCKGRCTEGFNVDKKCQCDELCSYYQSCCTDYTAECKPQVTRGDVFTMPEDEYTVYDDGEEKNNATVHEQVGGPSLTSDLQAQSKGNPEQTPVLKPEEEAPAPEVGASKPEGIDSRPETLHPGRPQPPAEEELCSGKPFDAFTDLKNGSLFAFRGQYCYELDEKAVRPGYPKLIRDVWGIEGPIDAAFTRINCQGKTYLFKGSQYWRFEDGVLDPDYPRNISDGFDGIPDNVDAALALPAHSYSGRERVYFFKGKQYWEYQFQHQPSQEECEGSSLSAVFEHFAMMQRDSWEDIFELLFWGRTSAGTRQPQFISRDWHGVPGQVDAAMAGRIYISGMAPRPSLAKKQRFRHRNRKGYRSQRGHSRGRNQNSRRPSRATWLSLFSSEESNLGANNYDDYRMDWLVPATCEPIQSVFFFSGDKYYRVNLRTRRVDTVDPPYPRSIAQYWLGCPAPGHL

B1: interleukin-1 receptor antagonist (wild type) (natural protein, UniProt P25085 27-178, looked up)
chain: RPSGKRPCKMQAFRIWDTNQKTFYLRNNQLIAGYLQGPNIKLEEKIDMVPIDLHSVFLGIHGGKLCLSCAKSGDDIKLQLEEVNITDLSKNKEEDKRFTFIRSEKGPTTSFESAACPGWFLCTTLEADRPVSLTNTPEEPLIVTKFYFQEDQ
notes: interleukin-1 receptor antagonist protein; also called IL-1Ra; source: bought: Peprotech
In the case of B1, the Kd (commonly a measure of binding affinity in units of concentration) came out at 96.5 nM with human vitronectin [1], 137 nM with human tenascin C [2], 153 nM with human plasma fibronectin [3] and 640 nM with human fibrinogen [4].

B2: platelet-derived growth factor-BB (wild type) (natural protein, UniProt P31240 82-190, looked up)
chain: SLGSLAAAEPAVIAECKTRTEVFQISRNLIDRTNANFLVWPPCVEVQRCSGCCNNRNVQCRASQVQMRPVQVRKIEIVRKKPIFKKATVTLEDHLACKCETIVTPRPVT
notes: platelet-derived growth factor subunit B; also called PDGF-BB; source: bought: Peprotech
Turning to B2, the Kd with human vitronectin [1] amounted to 29.7 nM; with human tenascin C [2], 87.8 nM; with human plasma fibronectin [3] it was 74.2 nM; in the assay with human fibrinogen [4], 210 nM.

B3: placenta growth factor-2 (natural protein, human, UniProt P49763-3 19-170, looked up)
chain: LPAVPPQQWALSAGNGSSEVEVVPFQEVWGRSYCRALERLVDVVSEYPSEVEHMFSPSCVSLLRCTGCCGDENLHCVPVETANVTMQLLKIRSGDRPSYVELTFSQHVRCECRPLREKMKPERRRPKGRGKRRREKQRPTDCHLCGDAVPRR
notes: placenta growth factor, PlGF-2; also called PlGF; PlGF-2; source: bought: Peprotech (carrier-free recombinant)
With B3, the Kd amounted to 13.2 nM in the assay with human vitronectin [5], 79.4 nM with human tenascin C [6], 17.2 nM with human plasma fibronectin [7] and 14.1 nM with human fibrinogen [8].

B4: amphiregulin (natural protein, human, UniProt P15514 101-187, looked up)
chain: SVRVEQVVKPPQNKTESENTSDKPKRKKKGGKNGKNRRNRKKKNPCNAEFQNFCIHGECKYIEHLEAVTCKCQQEYFGERCGEKSMK
notes: amphiregulin; it is a soluble form, not the 252 aa precursor (surmise); also called AREG; source: bought: Peprotech (carrier-free recombinant)
Regarding B4, the Kd turned out to be 9.3 nM in the assay with human vitronectin [5], 11 nM in the assay with human tenascin C [6], 8.9 nM in the assay with human plasma fibronectin [7] and 7.4 nM with human fibrinogen [8].
B5: the Kd with AREG26-38/IL-1Ra worked out at 16.9 nM; with AREG26-38/PDGF-BB, 13.9 nM.

B6: neurturin (natural protein, human, UniProt Q99748 96-197, looked up)
chain: ARLGARPCGLRELEVRVSELGLGYASDETVLFRYCAGACEAAARVYDLGLRRLRQRRRLRRERVRAQPCCRPTAYEDEVSFLDAHSRYHTVHELSARECACV
notes: neurturin; also called NRTN; source: bought: Peprotech (carrier-free recombinant)
As for B6, the Kd with human vitronectin [5] came to 53.1 nM; in the assay with human tenascin C [6] it was 55.7 nM; in the assay with human plasma fibronectin [7], 79.4 nM; with human fibrinogen [8], 390 nM.
